Measured values reported in US20250019439A1 (Adimab, published 2025).

Columns and labels:
[1] = biological target: T1, ADI-22523 Fab; assay: BLI; tip anti-ID IgG, solution ADI-22523 Fab
T1 construct: anti-CD3 Fab by papain digestion of the IgG
Method in brief: (§1)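 Bio-layer interferometry with anti-ID IgG loaded on AHC tips. KD (koff/kon) from 1:1 binding model fit; avid format.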

[2] = biological target: T2, ADI-22523 IgG; assay: BLI; tip anti-ID IgG, solution ADI-22523 IgG
T2 construct: anti-CD3 IgG
Method in brief: as §1

[3] = biological target: T3, ADI-76362; assay: SPR Carterra avidity, yeast anti-ID
T3 construct: anti-CD3 antibody made in CHO cells, captured by anti-human Fc
Method in brief: (§2)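 Goat anti-human Fc was amine-coupled to an HC30M sensor chip, then anti-CD3 antibodies at 100 nM were flowed over discrete spots for 5 min. Anti-idiotype antibodies were run in non-regenerative kinetic cycles at 25° C in HBSTE, with 300s dissociation. Blank-subtracted sensorgrams were fitted 1:1.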

[4] = biological target: T4, ADI-48592; assay: SPR Carterra avidity, yeast anti-ID
T4 construct: pH-dependent anti-CD3 antibody made in CHO cells
Method in brief: as §2

[5] = biological target: T5, ADI-26921 IgG; assay: SPR Carterra avidity, yeast anti-ID
T5 construct: anti-CD3 IgG
Method in brief: as §2

[6] = biological target: T6, ADI-76358; assay: SPR Carterra avidity, yeast anti-ID
T6 construct: anti-CD3 antibody made in CHO cells, captured by anti-human Fc
Method in brief: as §2

[7] = biological target: T7, ADI-26916 IgG; assay: SPR Carterra avidity, yeast anti-ID
T7 construct: anti-CD3 IgG
Method in brief: as §2

[8] = biological target: T8, ADI-76359; assay: SPR Carterra avidity, yeast anti-ID
T8 construct: anti-CD3 antibody made in CHO cells, captured by anti-human Fc
Method in brief: as §2

[9] = biological target: T9, ADI-48576; assay: SPR Carterra avidity, yeast anti-ID
T9 construct: pH-dependent anti-CD3 antibody made in CHO cells
Method in brief: as §2

[10] = biological target: T10, ADI-74966; assay: SPR Carterra avidity, yeast anti-ID
T10 construct: pH-dependent anti-CD3 antibody made in CHO cells
Method in brief: as §2

[11] = biological target: T11, ADI-26924; assay: SPR Carterra avidity, yeast anti-ID
T11 construct: anti-CD3 antibody made in CHO cells, captured by anti-human Fc
Method in brief: as §2

[12] = biological target: T12, ADI-67447; assay: SPR Carterra avidity, yeast anti-ID
T12 construct: anti-CD3 antibody made in CHO cells, captured by anti-human Fc
Method in brief: as §2

[13] = biological target: T13, ADI-26920 IgG; assay: SPR Carterra avidity, yeast anti-ID
T13 construct: anti-CD3 IgG
Method in brief: as §2

[14] = biological target: T14, ADI-74968; assay: SPR Carterra avidity, yeast anti-ID
T14 construct: pH-dependent anti-CD3 antibody made in CHO cells
Method in brief: as §2

[15] = biological target: T15, ADI-26913 IgG; assay: SPR Carterra avidity, yeast anti-ID
T15 construct: anti-CD3 IgG
Method in brief: as §2

[16] = biological target: T16, ADI-26912; assay: SPR Carterra avidity, yeast anti-ID
T16 construct: anti-CD3 antibody made in CHO cells, captured by anti-human Fc
Method in brief: as §2

[17] = biological target: T17, ADI-76360; assay: SPR Carterra avidity, yeast anti-ID
T17 construct: anti-CD3 antibody made in CHO cells, captured by anti-human Fc
Method in brief: as §2

[18] = biological target: T18, ADI-67450; assay: SPR Carterra avidity, yeast anti-ID
T18 construct: anti-CD3 antibody made in CHO cells, captured by anti-human Fc
Method in brief: as §2

[19] = biological target: T19, ADI-74967; assay: SPR Carterra avidity, yeast anti-ID
T19 construct: pH-dependent anti-CD3 antibody made in CHO cells
Method in brief: as §2

[20] = biological target: T20, ADI-26943; assay: SPR Carterra avidity, yeast anti-ID
T20 construct: anti-CD3 antibody made in CHO cells, captured by anti-human Fc
Method in brief: as §2

[21] = biological target: T21, ADI-74965; assay: SPR Carterra avidity, yeast anti-ID
T21 construct: pH-dependent anti-CD3 antibody made in CHO cells
Method in brief: as §2

[22] = biological target: T22, ADI-26919; assay: SPR Carterra avidity, yeast anti-ID
T22 construct: anti-CD3 antibody made in CHO cells, captured by anti-human Fc
Method in brief: as §2

[23] = biological target: T23, ADI-76361; assay: SPR Carterra avidity, yeast anti-ID
T23 construct: anti-CD3 antibody made in CHO cells, captured by anti-human Fc
Method in brief: as §2

[24] = biological target: T24, ADI-76357; assay: SPR Carterra avidity, yeast anti-ID, *koff limit
T24 construct: anti-CD3 antibody made in CHO cells, captured by anti-human Fc
Method in brief: as §2

[25] = biological target: T25, ADI-26906 IgG; assay: SPR Carterra avidity, yeast anti-ID, *koff limit
T25 construct: anti-CD3 IgG
Method in brief: as §2

[26] = biological target: T26, ADI-70330; assay: SPR Carterra, yeast anti-ID
T26 construct: anti-CD3 antibody made in CHO cells, captured by anti-human Fc
Method in brief: as §2

[27] = biological target: T27, CTL-62228; assay: SPR Carterra, yeast anti-ID
T27 construct: also called glofitamab
Method in brief: as §2

[28] = biological target: T28, CTL-62227; assay: SPR Carterra, yeast anti-ID
T28 construct: also called odronextamab
Method in brief: as §2

[29] = biological target: T29, ADI-26915; assay: SPR Carterra, yeast anti-ID
T29 construct: anti-CD3 antibody made in CHO cells, captured by anti-human Fc
Method in brief: as §2

[30] = biological target: T30, ADI-50024; assay: SPR Carterra, yeast anti-ID
T30 construct: anti-CD3 antibody made in CHO cells, captured by anti-human Fc
Method in brief: as §2

[31] = biological target: T31, ADI-26909; assay: SPR Carterra, yeast anti-ID
T31 construct: anti-CD3 antibody made in CHO cells, captured by anti-human Fc
Method in brief: as §2

[32] = biological target: T32, CTL-62223; assay: SPR Carterra, yeast anti-ID
T32 construct: also called mosunetuzumab
Method in brief: as §2

[33] = biological target: T33, ADI-48587; assay: SPR Carterra, yeast anti-ID
T33 construct: pH-dependent anti-CD3 antibody made in CHO cells
Method in brief: as §2

[34] = biological target: T34, ADI-70327; assay: SPR Carterra, yeast anti-ID
T34 construct: anti-CD3 antibody made in CHO cells, captured by anti-human Fc
Method in brief: as §2

[35] = biological target: T35, CTL-62240; assay: SPR Carterra, yeast anti-ID
T35 construct: also called ONO-4685
Method in brief: as §2

[36] = biological target: T36, ADI-70326; assay: SPR Carterra, yeast anti-ID
T36 construct: anti-CD3 antibody made in CHO cells, captured by anti-human Fc
Method in brief: as §2

[37] = biological target: T37, ADI-67445; assay: SPR Carterra, yeast anti-ID
T37 construct: anti-CD3 antibody made in CHO cells, captured by anti-human Fc
Method in brief: as §2

[38] = biological target: T38, ADI-48650; assay: SPR Carterra, yeast anti-ID
T38 construct: pH-dependent anti-CD3 antibody made in CHO cells
Method in brief: as §2

T7 sequence (VH, as listed by the source, chain 1 of 2): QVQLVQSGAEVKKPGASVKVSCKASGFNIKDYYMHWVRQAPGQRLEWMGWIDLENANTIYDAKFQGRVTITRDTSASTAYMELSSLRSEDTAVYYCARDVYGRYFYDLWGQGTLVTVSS
T7 sequence (VL, as listed by the source, chain 2 of 2): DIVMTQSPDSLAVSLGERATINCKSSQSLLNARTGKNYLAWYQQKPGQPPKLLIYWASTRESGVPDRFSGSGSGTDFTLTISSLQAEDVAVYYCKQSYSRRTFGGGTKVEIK
T20 sequence (VH, as listed by the source, chain 1 of 2): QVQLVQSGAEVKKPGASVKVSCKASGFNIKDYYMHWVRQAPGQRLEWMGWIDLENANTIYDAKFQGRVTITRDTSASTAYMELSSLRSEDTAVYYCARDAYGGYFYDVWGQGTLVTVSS
T20 sequence (VL, as listed by the source, chain 2 of 2): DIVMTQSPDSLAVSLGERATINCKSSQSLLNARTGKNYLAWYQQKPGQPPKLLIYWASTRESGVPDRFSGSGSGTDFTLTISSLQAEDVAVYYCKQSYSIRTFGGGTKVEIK
T8 sequence (VH, as listed by the source, chain 1 of 2): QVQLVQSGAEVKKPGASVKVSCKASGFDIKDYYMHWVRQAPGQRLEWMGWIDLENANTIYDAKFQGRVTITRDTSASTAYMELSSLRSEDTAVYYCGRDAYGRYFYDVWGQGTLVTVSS
T8 sequence (VL, as listed by the source, chain 2 of 2): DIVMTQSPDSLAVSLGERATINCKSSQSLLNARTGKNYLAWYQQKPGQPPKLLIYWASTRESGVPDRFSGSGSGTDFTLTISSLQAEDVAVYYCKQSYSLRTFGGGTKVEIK
T34 sequence (VH, as listed by the source limits assumed, chain 1 of 2): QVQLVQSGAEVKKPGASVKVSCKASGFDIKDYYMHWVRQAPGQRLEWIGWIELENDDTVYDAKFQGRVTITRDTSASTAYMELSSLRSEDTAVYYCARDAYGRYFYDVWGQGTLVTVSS
T34 sequence (VL, as listed by the source limits assumed, chain 2 of 2): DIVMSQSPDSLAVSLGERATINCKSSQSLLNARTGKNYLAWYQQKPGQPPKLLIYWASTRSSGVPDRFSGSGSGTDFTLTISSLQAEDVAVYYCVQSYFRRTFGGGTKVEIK
T11 sequence (VH, as listed by the source, chain 1 of 2): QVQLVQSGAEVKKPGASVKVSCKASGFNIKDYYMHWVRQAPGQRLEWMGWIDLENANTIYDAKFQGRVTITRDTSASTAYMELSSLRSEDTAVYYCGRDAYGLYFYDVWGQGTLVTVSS
T37 sequence (VH, as listed by the source limits assumed, chain 1 of 2): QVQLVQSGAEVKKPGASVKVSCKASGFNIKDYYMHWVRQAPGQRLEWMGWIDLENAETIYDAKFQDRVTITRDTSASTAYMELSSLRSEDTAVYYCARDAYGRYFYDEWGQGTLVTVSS
T12 sequence (VH, as listed by the source limits assumed, chain 1 of 2): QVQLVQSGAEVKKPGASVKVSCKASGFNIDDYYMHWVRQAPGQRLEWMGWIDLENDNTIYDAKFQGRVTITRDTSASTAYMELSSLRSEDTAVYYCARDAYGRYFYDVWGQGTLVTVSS
T4 sequence (VH, as listed by the source, chain 1 of 2): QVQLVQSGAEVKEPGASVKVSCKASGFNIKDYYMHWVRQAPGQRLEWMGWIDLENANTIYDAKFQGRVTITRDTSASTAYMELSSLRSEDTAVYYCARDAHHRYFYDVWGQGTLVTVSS
T4 sequence (VL, as listed by the source, chain 2 of 2): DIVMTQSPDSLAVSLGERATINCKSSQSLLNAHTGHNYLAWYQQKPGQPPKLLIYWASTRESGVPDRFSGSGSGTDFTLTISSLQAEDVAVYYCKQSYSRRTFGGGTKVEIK
T18 sequence (VH, as listed by the source limits assumed, chain 1 of 2): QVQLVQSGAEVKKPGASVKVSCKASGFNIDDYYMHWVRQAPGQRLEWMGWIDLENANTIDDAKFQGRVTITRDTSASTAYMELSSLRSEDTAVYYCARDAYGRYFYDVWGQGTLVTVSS
T6 sequence (VH, as listed by the source, chain 1 of 2): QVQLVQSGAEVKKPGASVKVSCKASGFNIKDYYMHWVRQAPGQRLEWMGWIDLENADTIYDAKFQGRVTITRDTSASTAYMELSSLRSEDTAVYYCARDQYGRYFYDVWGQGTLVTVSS
T5 sequence (VH, as listed by the source limits assumed, chain 1 of 2): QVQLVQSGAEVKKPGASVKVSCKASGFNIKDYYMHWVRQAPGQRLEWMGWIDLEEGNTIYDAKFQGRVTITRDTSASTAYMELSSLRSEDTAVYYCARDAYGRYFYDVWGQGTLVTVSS
T28 sequence (VH, as listed by the source, chain 1 of 2): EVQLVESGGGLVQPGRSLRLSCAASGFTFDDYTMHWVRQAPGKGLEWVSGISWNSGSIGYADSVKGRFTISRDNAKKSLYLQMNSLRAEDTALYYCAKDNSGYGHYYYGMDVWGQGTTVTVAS
T28 sequence (VL, as listed by the source, chain 2 of 2): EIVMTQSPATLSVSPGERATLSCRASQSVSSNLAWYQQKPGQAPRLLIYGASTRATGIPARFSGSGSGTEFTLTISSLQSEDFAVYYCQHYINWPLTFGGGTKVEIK
T3 sequence (VH, as listed by the source, chain 1 of 2): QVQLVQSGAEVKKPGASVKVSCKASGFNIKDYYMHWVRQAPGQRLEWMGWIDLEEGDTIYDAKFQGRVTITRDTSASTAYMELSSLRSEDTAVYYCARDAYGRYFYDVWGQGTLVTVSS
T15 sequence (VH, as listed by the source limits assumed, chain 1 of 2): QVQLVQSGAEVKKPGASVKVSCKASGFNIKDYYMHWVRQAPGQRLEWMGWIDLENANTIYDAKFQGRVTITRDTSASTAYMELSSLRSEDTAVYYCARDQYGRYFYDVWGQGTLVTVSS
T25 sequence (VH, as listed by the source limits assumed, chain 1 of 2): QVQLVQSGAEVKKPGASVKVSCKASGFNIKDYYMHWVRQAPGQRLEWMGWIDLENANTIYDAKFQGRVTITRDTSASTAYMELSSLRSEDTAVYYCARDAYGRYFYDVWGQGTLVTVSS
T9 sequence (VH, as listed by the source, chain 1 of 2): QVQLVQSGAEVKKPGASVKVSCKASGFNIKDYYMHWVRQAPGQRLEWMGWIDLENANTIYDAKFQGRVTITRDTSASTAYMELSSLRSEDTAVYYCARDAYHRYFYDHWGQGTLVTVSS
T9 sequence (VL, as listed by the source, chain 2 of 2): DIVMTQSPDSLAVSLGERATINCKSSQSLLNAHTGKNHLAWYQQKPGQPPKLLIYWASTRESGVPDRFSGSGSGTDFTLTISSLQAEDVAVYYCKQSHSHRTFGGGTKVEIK
T2 sequence (VH, as listed by the source limits assumed, chain 1 of 2): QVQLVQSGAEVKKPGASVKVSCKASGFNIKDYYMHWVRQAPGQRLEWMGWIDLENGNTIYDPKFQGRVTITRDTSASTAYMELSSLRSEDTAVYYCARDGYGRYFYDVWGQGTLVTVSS
T2 sequence (VL, as listed by the source limits assumed, chain 2 of 2): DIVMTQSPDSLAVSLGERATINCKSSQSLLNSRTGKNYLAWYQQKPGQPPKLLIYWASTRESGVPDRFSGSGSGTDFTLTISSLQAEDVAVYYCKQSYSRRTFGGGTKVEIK

B1: ADI-34143 (antibody, V domains shown)
VH: EVQLLESGGGLVQPGGSLRLSCAASGFTFSSYAMSWVRQAPGKGLEWVSTISGSGGSTYYADSVKGRFTISRDNSKNTLYLQMNSLRAEDTAVYYCARLGGRRGSGSSYYYYYGMDVWGQGTTVTVSS
VL: not shown
notes: anti-ID IgG
- Kd [1]: 18.2 nM
- Kd [2]: 2.98 nM
- binding result [3]: binds
- binding result [4]: binds
- binding result [5]: binds
- binding result [6]: binds
- Kd [7]: 43 nM
- Kd [8]: 20 nM
- binding result [9]: binds
- Kd [10]: 36 nM
- Kd [11]: 20 nM
- Kd [12]: 33 nM
- Kd [13]: 35 nM
- Kd [14]: 130 nM
- Kd [15]: 23 nM
- binding result [16]: binds
- binding result [17]: binds
- binding result [18]: binds
- binding result [19]: binds
- Kd [20]: 11 nM
- binding result [21]: binds
- Kd [22]: 24 nM
- binding result [23]: binds
- Kd [24]: 6.6 nM
- Kd [25]: 13 nM
- binding result [26]: no binding (tested: up to 200 nM)
- binding result [27]: no binding (tested: up to 200 nM)
- binding result [28]: no binding (tested: up to 200 nM)
- binding result [29]: no binding (tested: up to 200 nM)
- binding result [30]: no binding (tested: up to 200 nM)
- binding result [31]: no binding (tested: up to 200 nM)
- binding result [32]: no binding (tested: up to 200 nM)
- binding result [33]: no binding (tested: up to 200 nM)
- binding result [34]: no binding (tested: up to 200 nM)
- binding result [35]: no binding (tested: up to 200 nM)
- binding result [36]: no binding (tested: up to 200 nM)
- binding result [37]: no binding (tested: up to 200 nM)
- binding result [38]: no binding (tested: up to 200 nM)
